Results reported in patent US20230357367A1 (GENERATE BIOMEDICINES, published 2023).
Positions count from the first letter of the chain named. Like-named read-outs stand apart in the source and are kept apart here.

Key:
[1] = biological target: T1, SARS-CoV-1 Spike on pseudovirus (SARS-CoV-1, UniProt P59594 14-1255); experiment: cell-based or functional assay
[2] = biological target: T2, WIV1 Spike on pseudovirus (WIV1 (bat SARS-like coronavirus)); experiment: cell-based or functional assay
[3] = biological target: T1, SARS-CoV-1 Spike on pseudovirus; experiment: cell-based or functional assay; remark: listed apart in the source
[4] = biological target: T2, WIV1 Spike on pseudovirus; experiment: cell-based or functional assay; remark: listed apart in the source
[5] = biological target: T1, SARS-CoV-1 Spike on pseudovirus; experiment: cell-based or functional assay; remark: listed apart in the source
[6] = biological target: T2, WIV1 Spike on pseudovirus; experiment: cell-based or functional assay; remark: listed apart in the source
[7] = biological target: T3, MERS spike trimer (recombinant, negative control) (MERS, UniProt K9N5Q8 18-1296); experiment: SPR, Fab over anti-His-captured trimer, 25 C
T3 sequence: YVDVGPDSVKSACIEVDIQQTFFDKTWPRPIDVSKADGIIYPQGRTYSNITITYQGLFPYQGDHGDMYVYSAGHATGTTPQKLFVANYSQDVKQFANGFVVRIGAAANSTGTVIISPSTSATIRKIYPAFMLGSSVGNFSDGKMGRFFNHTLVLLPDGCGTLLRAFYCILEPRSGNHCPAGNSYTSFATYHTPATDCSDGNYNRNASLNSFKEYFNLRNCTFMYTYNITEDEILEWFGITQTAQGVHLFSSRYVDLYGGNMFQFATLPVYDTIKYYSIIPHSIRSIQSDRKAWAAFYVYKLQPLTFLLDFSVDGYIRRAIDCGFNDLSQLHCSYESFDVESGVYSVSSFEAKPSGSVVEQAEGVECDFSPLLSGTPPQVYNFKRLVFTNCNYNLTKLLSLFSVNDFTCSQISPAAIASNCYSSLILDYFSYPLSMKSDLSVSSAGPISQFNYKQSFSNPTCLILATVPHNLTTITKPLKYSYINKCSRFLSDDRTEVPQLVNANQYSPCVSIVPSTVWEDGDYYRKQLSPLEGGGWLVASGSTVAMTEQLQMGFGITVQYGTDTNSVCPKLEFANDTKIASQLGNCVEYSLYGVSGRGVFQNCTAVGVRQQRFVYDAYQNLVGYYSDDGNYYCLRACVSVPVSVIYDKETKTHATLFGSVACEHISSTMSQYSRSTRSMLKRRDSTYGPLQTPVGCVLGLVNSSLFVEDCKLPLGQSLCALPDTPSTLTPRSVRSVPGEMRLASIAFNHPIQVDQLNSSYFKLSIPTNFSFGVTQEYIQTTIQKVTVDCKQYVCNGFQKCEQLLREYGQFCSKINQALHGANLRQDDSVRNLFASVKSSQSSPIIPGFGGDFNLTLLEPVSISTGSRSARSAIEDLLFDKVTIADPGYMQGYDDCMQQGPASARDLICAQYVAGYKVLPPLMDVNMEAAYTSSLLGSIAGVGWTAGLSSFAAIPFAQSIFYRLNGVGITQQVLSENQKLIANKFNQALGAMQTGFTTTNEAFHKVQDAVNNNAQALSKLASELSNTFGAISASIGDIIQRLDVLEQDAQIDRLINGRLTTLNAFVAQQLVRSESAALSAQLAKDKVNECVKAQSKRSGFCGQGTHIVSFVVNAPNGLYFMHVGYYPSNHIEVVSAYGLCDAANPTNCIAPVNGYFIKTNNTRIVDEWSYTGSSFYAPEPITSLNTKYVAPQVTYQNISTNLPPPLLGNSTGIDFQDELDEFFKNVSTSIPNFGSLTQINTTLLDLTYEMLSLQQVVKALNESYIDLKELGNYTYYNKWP

[8] = biological target: spike of SARS-CoV-2 Eng20 (WT) (SARS-CoV-2, UniProt P0DTC2 14-1273); experiment: cell-based or functional assay

B1: Reference Antibody (antibody, V domains shown)
VH: EVQLVESGAEVKKPGESLKISCKGSGYTFTRYWIGWVRQMPGKGLEWMGIIYPGDSDTRYSPSFQGHVTISADKSISTAYLQWNSLKASDTAMYYCARLPQYCSNGVCQRWFDPWGQGTLVTVSS
VL: EIVLTQSPSSVSASVGDRVTITCRASQGISSWLAWYQQKPGKAPKLLIYAASSLQSGVPSRFSGSGSGTDFTLTISSLQPEDFATYYCQQGNSFPYTFGQGTNLEIK
With B1 the “IC50, pseudovirus neutralization” value [1] was 0.244 µg/mL, the “IC50, pseudovirus neutralization” value [2] was 0.473 µg/mL and the “IC50, pseudovirus neutralization” value [3] was 0.0352 µg/mL. For the same binder, the “IC50, pseudovirus neutralization” value [4] was 0.0196 µg/mL, the “% neutralization at 4.5 µg/ml, pseudovirus” value [5] was 94.3% and the “% neutralization at 4.5 µg/ml, pseudovirus” value [6] was 97.6%.

B2: AB-1 Fab (Fab, V domains shown)
VH: B1 VH with T58V, N105K, Q109Y
VL: B1 VL with N92H
B2: no binding (tested: 600 nM highest Fab concentration) [7].

B3: Reference Antibody Fab (Fab, V domains shown)
VH: B1 VH
VL: B1 VL
B3: no binding (tested: 600 nM highest Fab concentration) [7].

B4: bebtelovimab (antibody, V domains shown)
VH: QITLKESGPTLVKPTQTLTLTCTFSGFSLSISGVGVGWLRQPPGKALEWLALIYWDDDKRYSPSLKSRLTISKDTSKNQVVLKMTNIDPVDTATYYCAHHSISTIFDHWGQGTLVTVSS
VL: QSALTQPASVSGSPGQSITISCTATSSDVGDYNYVSWYQQHPGKAPKLMIFEVSDRPSGISNRFSGSKSGNTASLTISGLQAEDEADYYCSSYTTSSAVFGGGTKLTVLG
B4 was tested, and the “EC50, live virus neutralization” value [8] was 0.0016 µg/mL.
